Assay results reported in patent US20240124563A1 (NANJING ZAIMING PHARMACEUTICAL, published 2024).

Tests used:
[1] = target: T1, human MSLN-R1-his protein (human, UniProt Q13421 296-390); assay: ELISA, antibody 10 nM
T1 construct: MSLN-R1 = Glu296-Thr390; also called hMSLN-R1-his; not shown: histidine tag
T1 chain: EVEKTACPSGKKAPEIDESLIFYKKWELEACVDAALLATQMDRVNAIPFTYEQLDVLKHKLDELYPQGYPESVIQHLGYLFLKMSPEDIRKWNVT

[2] = target: T2, human MSLN-FL-his protein (human, UniProt Q13421 296-580); assay: competitive ELISA on MSLN-FL-His; other antibody: NB149-95 (3.m11)
T2 construct: Made in HEK293E cells, purified on nickel column; also called hMSLN-FL-his; not shown: histidine tag

[3] = target: T1, human MSLN-R1-his protein; assay: ELISA, antibody 0 nM (blank)
[4] = target: T3, human MSLN-R2-his protein (human, UniProt Q13421 391-486); assay: ELISA, antibody 1 nM
T3 construct: MSLN-R2 = Ser391-Asn486; also called hMSLN-R2-his; not shown: histidine tag
T3 sequence (Q13421 other isoform, or with tags, fused parts or gaps): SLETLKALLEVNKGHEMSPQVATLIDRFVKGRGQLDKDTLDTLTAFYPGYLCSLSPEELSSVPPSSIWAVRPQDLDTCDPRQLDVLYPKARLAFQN

[5] = target: T2, human MSLN-FL-his protein; assay: competitive ELISA on MSLN-FL-His; other antibody: Tab108 (R3) (3.m14)
[6] = target: T1, human MSLN-R1-his protein; assay: ELISA, antibody 0.0001 nM
[7] = target: T3, human MSLN-R2-his protein; assay: ELISA, antibody 0.01 nM
[8] = target: T3, human MSLN-R2-his protein; assay: ELISA, antibody 10 nM
[9] = target: T3, human MSLN-R2-his protein; assay: ELISA, antibody 0.001 nM
[10] = target: T2, human MSLN-FL-his protein; assay: competitive ELISA on MSLN-FL-His; other antibody: NB148-27 (3.m3)
[11] = target: T1, human MSLN-R1-his protein; assay: ELISA, antibody 0.001 nM
[12] = target: T4, human MSLN-R3-his protein (human, UniProt Q13421 487-598); assay: ELISA, antibody 0 nM (blank)
T4 construct: MSLN-R3 = Met487-Ser598; also called hMSLN-R3-his; not shown: histidine tag
T4 sequence (Q13421 495-606): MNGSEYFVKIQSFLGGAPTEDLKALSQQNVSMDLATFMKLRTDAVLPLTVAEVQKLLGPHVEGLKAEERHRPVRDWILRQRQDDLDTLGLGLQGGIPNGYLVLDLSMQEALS

[13] = target: T2, human MSLN-FL-his protein; assay: competitive ELISA on MSLN-FL-His; other antibody: NB148-46 (3.m5)
[14] = target: T2, human MSLN-FL-his protein; assay: competitive ELISA on MSLN-FL-His; other antibody: NB148-13 (3.m1)
[15] = target: T4, human MSLN-R3-his protein; assay: ELISA, antibody 0.001 nM
[16] = target: T1, human MSLN-R1-his protein; assay: ELISA, antibody 1 nM
[17] = target: T2, human MSLN-FL-his protein; assay: competitive ELISA on MSLN-FL-His; other antibody: Tab107 (C) (1.m4)
[18] = target: T2, human MSLN-FL-his protein; assay: competitive ELISA on MSLN-FL-His; other antibody: NB149-70 (3.m9)
[19] = target: T2, human MSLN-FL-his protein; assay: competitive ELISA on MSLN-FL-His; other antibody: NB148-25 (3.m2)
[20] = target: T4, human MSLN-R3-his protein; assay: ELISA, antibody 10 nM
[21] = target: T4, human MSLN-R3-his protein; assay: ELISA, antibody 100 nM
[22] = target: T3, human MSLN-R2-his protein; assay: ELISA, antibody 0.1 nM
[23] = target: T1, human MSLN-R1-his protein; assay: ELISA, antibody 0.01 nM
[24] = target: T4, human MSLN-R3-his protein; assay: ELISA, antibody 0.1 nM
[25] = target: T4, human MSLN-R3-his protein; assay: ELISA, antibody 0.01 nM
[26] = target: T1, human MSLN-R1-his protein; assay: ELISA, antibody 0.1 nM
[27] = target: T3, human MSLN-R2-his protein; assay: ELISA, antibody 100 nM
[28] = target: T3, human MSLN-R2-his protein; assay: ELISA, antibody 0.0001 nM
[29] = target: T1, human MSLN-R1-his protein; assay: ELISA, antibody 100 nM

B1: Tab107 (YP3, hIgG1) (antibody, V domains shown)
VH: QEQLVESGGGLVQPGASLTLTCTASGIDFSRYYMCWVRQAPGKGLEGIACIYIGGSGSTYYASWAKGRFTISKASSTTVTLQMTSLTAADTATYFCARGTNLNYIFRLWGPGTLVTVSS
VL: DVVMTQTPSPVSAAVGGTVTIKCQASQSINNGLAWYQQKPGQPPRLLIYSASNLESGVPSRFKGSGSGTEFTLTISDLECDDAATYYCQCIWDGNSYVNAFGGGTEVVVRT
notes: also called YP3 human IgG1 antibody
- OD450 nm [1]: 0.06
- inhibition rate [2]: -5%
- OD450 nm [3]: 0.05
- OD450 nm [4]: 0.05
- inhibition rate [5]: 21%
- OD450 nm [6]: 0.04
- OD450 nm [7]: 0.04
- OD450 nm [8]: 0.05
- OD450 nm [9]: 0.05
- inhibition rate [10]: 1%
- OD450 nm [11]: 0.05
- OD450 nm [12]: 0.05
- inhibition rate [13]: 7%
- inhibition rate [14]: 38%
- OD450 nm [15]: 0.05
- OD450 nm [16]: 0.05
- inhibition rate [17]: 65%
- inhibition rate [18]: -10%
- inhibition rate [19]: 23%
- OD450 nm [20]: 0.05
- OD450 nm [21]: 0.09
- OD450 nm [22]: 0.04
- OD450 nm [23]: 0.06
- OD450 nm [24]: 0.05
- OD450 nm [25]: 0.04
- OD450 nm [26]: 0.05
- OD450 nm [27]: 0.09
- OD450 nm [28]: 0.04
- OD450 nm [29]: 0.08
